Abundance fitness data for 167 variants are collected here from the Human Domainome abundance scans (Beltran et al. 2025).

The labels stand for the following.
B1: Chromodomain-helicase-DNA-binding protein 5, residues 338 to 390; numbered along this chain, Q8TDI0 (parent)
chain: YETDHQDYCEVCQQGGEIILCDTCPRAYHLVCLDPELEKAPEGKWSCPHCEKE
B2: SWI/SNF complex subunit SMARCC1, residues 620 to 663; numbered along this chain, Q92922 (parent)
chain: GREWTEQETLLLLEALEMYKDDWNKVSEHVGSRTQDECILHFLR

± gives the uncertainty stated by the source.

The variants in one data set derive from B1. Put plainly: abundance fitness (aPCA) (normalised: wild type 0, dead -1); higher = more abundant; growth selection in yeast, the domain comes from the species named. The following applies: Homo sapiens.
For H29W, the abundance fitness is -0.822 ± 0.17.

For H29K, the abundance fitness was -0.793 ± 0.17. Still for that read-out and setting: for H29E the value was -0.736 ± 0.16. Same read-out and setting: for T23F the value was 0.166 ± 0.16; for T23G, -0.305 ± 0.11; for L20E, -0.119 ± 0.16. The same measure, in the same setting: next, L20Q: 0.414 ± 0.16; L33N: -0.311 ± 0.17. As to P25W, the abundance fitness is -0.081 ± 0.16. On the same count and under the same terms, for P25N the value was -0.084 ± 0.22; for P25H, -0.833 ± 0.43; for P25Q, -0.093 ± 0.23. On to P25R, for which the abundance fitness is -0.107 ± 0.12.

As to P25Y, the abundance fitness was -0.08 ± 0.34. Regarding C9G, the abundance fitness is -0.593 ± 0.095.

Consider C9F, for which the abundance fitness is -1.18 ± 0.22. With C9M, the abundance fitness is -0.803 ± 0.16. With C9N, the abundance fitness is -0.764 ± 0.21.

With C9K, the abundance fitness was -0.804 ± 0.18.

As to C9E, the abundance fitness is -0.611 ± 0.15. In the case of V31N, the abundance fitness was -0.193 ± 0.21. On the same count and under the same terms, for C24T the value was -0.586 ± 0.19; for C24E, -0.979 ± 0.21; for T3K, 0.264 ± 0.16. With T3Y, the abundance fitness is 0.171 ± 0.19. Same read-out and setting: for T3M the value was 0.567 ± 0.16. Consider E10D, for which the abundance fitness was -0.14 ± 0.18. The same measure, in the same setting: next, E10N: 0.338 ± 0.18. Same read-out and setting: for E10S the value was -0.112 ± 0.11; for L37C, -0.094 ± 0.16; for L37R, 0.115 ± 0.095. The same measure, in the same setting: next, K52F: -0.248 ± 0.22; K52L: -0.249 ± 0.14; D34S: 0.093 ± 0.13. Regarding D34T, the abundance fitness was -0.195 ± 0.2.

Regarding D34W, the abundance fitness is -0.516 ± 0.18.

For D34L, the abundance fitness was -0.201 ± 0.11. The same measure, in the same setting: next, P48Q: -0.087 ± 0.17; G15Y: 0.083 ± 0.17. Same read-out and setting: for E42Q the value was -0.224 ± 0.17.

Consider G43R, for which the abundance fitness was -0.11 ± 0.098.

Turning to H49R, the abundance fitness was -0.291 ± 0.16. As to L30R, the abundance fitness was determined as 0.085 ± 0.11. As to L30D, the abundance fitness is -0.206 ± 0.23. On the same count and under the same terms, for C47M the value was -0.945 ± 0.17; for K44W, -0.236 ± 0.13; for E17W, 0.188 ± 0.14. The same measure, in the same setting: for E17M the value was 0.1 ± 0.18.

For V11D, the abundance fitness came to 0.018 ± 0.15. Still for that read-out and setting: next, V11L: 0.245 ± 0.093; A40F: 0.3 ± 0.16. Take A40V: the abundance fitness is -0.033 ± 0.1.

As to A40M, the abundance fitness is 0.017 ± 0.14. On to Q13H, for which the abundance fitness was -0.268 ± 0.23. The same measure, in the same setting: next, I18V: -0.286 ± 0.12; I18D: -0.172 ± 0.17; Y8E: 0.306 ± 0.12.

Regarding Y8R, the abundance fitness amounted to 0.211 ± 0.1. With Y8P, the abundance fitness worked out at 0.33 ± 0.13. Take D7V: the abundance fitness worked out at 0.096 ± 0.12. For the variant D7S, the abundance fitness was -0.257 ± 0.16.

As to E38I, the abundance fitness was -0.294 ± 0.24. As to E38F, the abundance fitness was -0.053 ± 0.17. As to P35V, the abundance fitness is 0.03 ± 0.096. For P35Q, the abundance fitness is -0.058 ± 0.15. Still for that read-out and setting: for P35T the value was 0.069 ± 0.13; for C21Q, -0.973 ± 0.28. The same measure, in the same setting: for C21T the value was -0.995 ± 0.23; for E2L, 0.287 ± 0.16; for E53A, -0.246 ± 0.16. The same measure, in the same setting: next, E53R: -0.341 ± 0.16; K39Y: -0.278 ± 0.2. As to K39G, the abundance fitness came to 0.03 ± 0.089. For Y1K, the abundance fitness stood at 0.125 ± 0.48. Still for that read-out and setting: for Y1S the value was -0.481 ± 0.38; for R26V, -0.207 ± 0.13; for D22A, 0.149 ± 0.15. Same read-out and setting: next, D22I: -0.177 ± 0.21.

Consider D22S, for which the abundance fitness is -0.244 ± 0.12. On the same count and under the same terms, next, C12Y: -0.891 ± 0.15. Still for that read-out and setting: next, C12A: -0.688 ± 0.11. Same read-out and setting: for W45D the value was -0.268 ± 0.13; for W45S, -0.054 ± 0.1; for W45K, -0.046 ± 0.22. Take S46I: the abundance fitness stood at 0.137 ± 0.24. Q14S: the abundance fitness worked out at 0 ± 0.1. The same measure, in the same setting: for Q14A the value was -0.093 ± 0.17.

Variants of B2 are the subject of another data set. The description is as above. The following applies: Homo sapiens.
For I39R, the abundance fitness was 0.456 ± 0.049. For the variant I39S, the abundance fitness was determined as 0.32 ± 0.047.

Regarding I39H, the abundance fitness was found to be 0.456 ± 0.053.

For I39E, the abundance fitness stood at 0.513 ± 0.082. Take I39L: the abundance fitness came to 0.142 ± 0.051.

On to I39P, for which the abundance fitness is -0.378 ± 0.085. Take I39F: the abundance fitness is -0.043 ± 0.065. With I39N, the abundance fitness amounted to 0.35 ± 0.076. Same read-out and setting: for I39G the value was -0.004 ± 0.064.

On to I39K, for which the abundance fitness was 0.564 ± 0.081. Consider I39W, for which the abundance fitness is -0.333 ± 0.15. On the same count and under the same terms, next, I39Y: 0.117 ± 0.074; I39Q: 0.238 ± 0.062.

For the variant I39A, the abundance fitness was found to be 0.178 ± 0.066. Still for that read-out and setting: for I39M the value was 0.217 ± 0.08; for E37N, -0.717 ± 0.41. Still for that read-out and setting: next, E37L: -1.08 ± 0.24; E37T: -0.738 ± 0.13. Same read-out and setting: for E37H the value was -0.668 ± 0.14; for E37R, -0.63 ± 0.15. With E37D, the abundance fitness came out at 0.021 ± 0.11. Take E37A: the abundance fitness was -0.283 ± 0.1. On the same count and under the same terms, next, E37F: -1.02 ± 0.37; E37V: -1.01 ± 0.23; E37G: -0.722 ± 0.21.

Turning to E37K, the abundance fitness was -0.546 ± 0.23. Same read-out and setting: next, E37P: -0.846 ± 0.18; E37Q: -0.303 ± 0.18. With E37S, the abundance fitness was -0.533 ± 0.14.

Regarding E37M, the abundance fitness was -0.4 ± 0.23.

For G31N, the abundance fitness is -0.259 ± 0.15. On the same count and under the same terms, for G31F the value was -0.375 ± 0.15.

For the variant G31V, the abundance fitness was -0.028 ± 0.054. G31C: the abundance fitness was -0.009 ± 0.072. The same measure, in the same setting: for G31E the value was 0.032 ± 0.064; for G31P, -0.11 ± 0.061; for G31I, -0.174 ± 0.099.

Regarding G31M, the abundance fitness is -0.059 ± 0.087. On the same count and under the same terms, next, G31D: -0.205 ± 0.14. On to G31Q, for which the abundance fitness was -0.518 ± 0.089.

For the variant G31Y, the abundance fitness is -0.487 ± 0.13. With G31A, the abundance fitness was -0.03 ± 0.073. On the same count and under the same terms, for G31W the value was -0.543 ± 0.11; for G31L, -0.528 ± 0.077.

For G31K, the abundance fitness came out at 0.073 ± 0.084. Same read-out and setting: for H29R the value was -0.153 ± 0.1. Same read-out and setting: next, H29I: -0.469 ± 0.44; H29L: -0.264 ± 0.074. Take H29V: the abundance fitness is -0.349 ± 0.11. Still for that read-out and setting: next, H29Y: -0.014 ± 0.095; H29F: -0.201 ± 0.12; H29C: -0.382 ± 0.12. Consider H29P, for which the abundance fitness was -0.796 ± 0.16.

In the case of H29G, the abundance fitness was -0.803 ± 0.17. On to H29T, for which the abundance fitness is -0.419 ± 0.11. Take H29N: the abundance fitness was -0.173 ± 0.13.

Take H29Q: the abundance fitness was -0.11 ± 0.13. As for H29S, the abundance fitness was -0.344 ± 0.083. Consider H29M, for which the abundance fitness is -0.209 ± 0.09.

As to H29E, the abundance fitness was -0.551 ± 0.25. Still for that read-out and setting: next, S32Q: 0.032 ± 0.068; S32W: -0.622 ± 0.19. On the same count and under the same terms, for S32R the value was -0.176 ± 0.067; for S32C, -0.124 ± 0.082; for S32V, -0.191 ± 0.074. Same read-out and setting: for S32T the value was 0.203 ± 0.056. For the variant S32G, the abundance fitness turned out to be 0.115 ± 0.057. On the same count and under the same terms, for S32H the value was -0.138 ± 0.064; for S32I, -0.135 ± 0.085. Turning to S32K, the abundance fitness came out at 0.05 ± 0.077. The same measure, in the same setting: next, S32P: -0.419 ± 0.1. For S32E, the abundance fitness was determined as 0.105 ± 0.088. Still for that read-out and setting: for S32A the value was -0.015 ± 0.064; for S32M, -0.083 ± 0.087. With S32N, the abundance fitness came to 0.025 ± 0.097.

As for S32Y, the abundance fitness is -0.182 ± 0.13.

For S32L, the abundance fitness is -0.224 ± 0.062. R33I: the abundance fitness was -0.885 ± 0.14. On the same count and under the same terms, next, R33V: -0.387 ± 0.09; R33M: -0.585 ± 0.13.
